# Test results as given in article PMC4994030 (Scientific Reports, 2016).
# Target: T1, HER2-ECD (human epidermal growth factor receptor 2, extracellular domain) (Homo sapiens, UniProt P04626)
# T1 construct: also called HER-ECD
# Assay: ELISA
# Conditions: one partner purified
row,Binder,binding result
1,"GH2-42 scFv (scFv, V domains shown, also called scFv(GH2-42); source: E. coli ER2738, secreted, in filtered culture supernatant) VH: EVQLVESGGGLVQPGGSLRLSCAASGFTISNWGIHWVRQAPGKGLEWVAGIGPYGGYTSYADSVKGRFTISADTSKNTAYLQMNSLRAEDTAVYYCARFGFYFDGIMDYWGQGTLVTVSS VL: DIQMTQSPSSLSASVGDRVTITCRASQDVSSGVAWYQQKPGKAPKLLISGPTGLYSGVPSRFSGSGSGTDFTLTISSLQPEDFATYYCQQYYDWPLTFGQGTKVKRG",binds
2,"GH2-72 scFv (scFv, V domains shown, source: E. coli ER2738, secreted, in filtered culture supernatant) VH: EVQLVESGGGLVQPGGSLRLSCAASGFTISNGGIHWVRQAPGKGLEWVAYIWPSGGYTFYADSVKGRFTISADTSKNTAYLQMNSLRAEDTAVYYCARFFNNDWIGMDYWGQGTLVTVSS VL: DIQMTQSPSSLSASVGDRVTITCRASQDVGYFVAWYQQKPGKAPKLLISGTTWLYSGVPSRFSGSGSGTDFTLTISSLQPEDFATYYCQQYSNWPLTFGQGTKVEIK",binds
3,"GH2-101 scFv (scFv, V domains shown, source: E. coli ER2738, secreted, in filtered culture supernatant) VH: EVQLVESGGGLVQPGGSLRLSCAASGFTINSYGIHWVRQAPGKGLEWVASIGPYWGYTSYADSVKGRFTISADTSKNTAYLQMNSLRAEDTAVYYCARFYIWFDGLMDYWGQGTLVTVSS VL: DIQMAQSPSSLSASVGDRVTITCRASQDVSNGVAWYQQKPGKAPKLLIYGTTSLYSGVPSRFSGSGSGTDFTLTISSLQPEDFATYYCQQYYSWPLTFGQGTKVEIK",binds
4,"GH2-38 scFv (scFv, V domains shown, source: E. coli ER2738, secreted, in filtered culture supernatant) VH: EVQLVESGGGLVQPGGSLRLSCAASGFTISDGGIHWVRQAPGKGLEWVAGIGPYGGYTSYADSVKGRFTISADTSKNTAYLQMNSLRAEDTAVYYCARFGDNFIGVMDYWGQGTLVTVSS VL: DIQMTQSPSSLSASVGDRVTITCRASQDVFGGVAWYQQKPGKAPKLLIYGPSYLYSGVPSRFSGSGSGTDFTLTISSLQPEDFATYYCQQYSSWPITFGQGTKVEIK",binds
5,"GH2-103 scFv (scFv, V domains shown, source: E. coli ER2738, secreted, in filtered culture supernatant) VH: EVQLVESGGGLVQPGGSLRLSCAASGFTIDEYGIHWVRQAPGKGLEWVAFIGPYWGYTSYADSVKGRFTISADTSKNTAYLQMNSLRAEDTAVYYCARFGHLHDGLMDYWGQGTLVTVSS VL: DIQMTQSPSSLSASVGDRVTITCRASQDVFSGVAWYQQKPGKAPKLLISGTPFLYSGVPSRFSGSGSGTDFTLTISSLQPEDFATYYCQQYYNWPITFGQGTKVEIK",binds
6,"GH2-40 scFv (scFv, V domains shown, source: E. coli ER2738, secreted, in filtered culture supernatant) VH: EVQLVESGGGLVQPGGSLRLSCAASGFTINSWGIHWVRQAPGKGLEWVAWIGPYWGFTSYADSVKGRFTISADTSKNTAYLQMNSLRAEDTAVYYCARFDGHFDGVMDYWGQGTLVTVSS VL: DIQMTQSPSSLSASVGDRVTITCRASQDVNNGVAWYQQKPGKAPKLLISGTPWLYSGVPSRFSGSGSGTDFTLTISSLQPEDFATYYCQQYFDWPLTFGQGTKVEIK",binds
7,"GH2-11 scFv (scFv, V domains shown, source: E. coli ER2738, secreted, in filtered culture supernatant) VH: EVQLVESGGGLVQPGGSLRLSCAASGFTINDWGIHWVRQAPGKGLEWVAGIGPYGGYTSYADSVRGRFTISADTSKNTAYLQMNSLRAEDTAVYYCARFVNWDFYGMDYWGQGTLVTVSS VL: DIQMTQSPSSLSASVGDRVTITCRASQDVGDGVAWYQQKPGKAPKLLIYSAGWLYSGVPSRFSGSGSGTDFTLTISSLQPEDFATYYCQQYYSYPITFGQGTKVEIK",binds
8,"GH2-75 scFv (scFv, V domains shown, also called scFv(GH2-75); source: E. coli ER2738, secreted, in filtered culture supernatant) VH: EVQLVESGGGLVQPGGSLRLSCAASGSTIGNSGIHWVRQAPGKGLEWVAYIGPYGGYTSYADSVKGRFTISADTSKNTAYLQMNSLRAEDTAVYYCARFDDYHWDGMDYWGQGTLVTVSS VL: DIQMTQSPSSLSASVGDRVIITCRASQDVSGYVAWYQQKPGKAPKLLIYSSGVPSRFSGSGSGTDFTLTISSLQPEDFATYYCQQYYNWPVTFGQGTKVEIK",binds
9,"GH2-61 scFv (scFv, V domains shown, also called scFv(GH2-61); source: E. coli ER2738, secreted, in filtered culture supernatant) VH: EVQLVESGGGLVQPGGSLRLSCAASGFTINNWGIHWVRQAPGKGLEWVAGIWPYGGYTYYADSVKGRFTISADTSKNTAYLQMNSLRAEDTAVYYCARFYNHHGGVMDYWGQGTLVTVSS VL: DIQMTQSPSSLSASVGDRVTITCRASQDVGSNVAWYQQKPGKAPKLLISWSTSLYSGVPSRFSGSGSGTDFTLTISSLQPEDFATYYCQQYGGWPITFGQGTKVEIK",binds
10,"GH2-102 scFv (scFv, V domains shown, source: E. coli ER2738, secreted, in filtered culture supernatant) VH: EVQLVESGGGLVQPGGSLRLSCAASGFTINGGGIHWVRQAPGKGLEWVASIGPYGGYTSYADSVKGRFTISADTSKNTAYLQMNSLRAGDTAVYYCARFGHHYDGHMDYWGQGTLVTVSS VL: DIQMTQSPSSLSASVGDRVTITCRASQDVGSNVAWYQQKPGKAPKLLIYGAPYLYSGVPSRFSGSGSGTDFTLTISSLQPEDFATYYCQQYYNWPLTFGQGTKVEIK",binds
11,"GH2-62 scFv (scFv, V domains shown, source: E. coli ER2738, secreted, in filtered culture supernatant) VH: EVQLVESGGGLVQPGGSLRLSCAASGFTINNWGIHWVRQAPGKGLEWVAGIWPFGGYTYYADSVKGRFTISADTSKNTAYLQMNSLRAEDTAVYYCARFDYLNNGGMDYWGQGTLVTVSS VL: DIQMTQSPSSLSASVGDRVTITCRASQDVGGYVAWYQQKPGKAPKLLIFGASGLYSGVPSRFSGSGSGTDFTLTISSLQPEDFATYYCQQFYSSPLTFGQGTKVEIK",binds
12,"GH2-92 scFv (scFv, V domains shown, source: E. coli ER2738, secreted, in filtered culture supernatant) VH: EVQLVESGGGLVQPGGSLRLSCAASGFTIGNWGIHWVRQAPGKGLEWVASIGPFWGYTFYADSVKGRFTISADTSKNTAYLQMNSLRAEDTAVYYCARFGNHYDGIMDYWGQGTLVTVSS VL: DIQMTQSPSSLSASVGDRVTITCRASQDVNDGVAWYQQKPGKAPKLLIFGSPYLFSGVPSRFSGSGSGTDFTLTISSLQPEDFATYYCQQYFSWPITFGQGTQVGIK",binds
13,"GH2-26 scFv (scFv, V domains shown, source: E. coli ER2738, secreted, in filtered culture supernatant) VH: EVQLVESGGGLVQPGGSLRLSCAASGFTISDYGIHWVRQAPGKGLEWVAFIGPYWGYTYYADSVKGRFTISADTSKNTAYLQMNSLRAEDTAVYYCARFYFFGDGLMDYWGQGTLVTVSS VL: DIQMTQSPSSLSASVGDRVTITCRASQDVSSGVAWYQQKPGKAPKLLIYGTSSLYSGVPSRFSGSGSGTDFTLTISSLQPEDFATYYCQQYFNWPITFGQGTKVEIK",binds
14,"GH2-24 scFv (scFv, V domains shown, source: E. coli ER2738, secreted, in filtered culture supernatant) VH: EVQLVESGGGLVQPGGSLRLSCAASGFTIDNGSIHWVRQAPGKGLEWVAFIGPSGGYTFYADSVKGRFTISADTSKNTAYLQMNSLRAEDTAVYYCARFGWHNVDNMDYWGQGTLVTVSS VL: DIQMTQSPSSLSASVGDRVTITCRASQDVGWGVAWYQQKPGKAPKLLISSTRSLYSGVPSRFSGSGSGTDFTLTISSLQPEDFATYYCQQYYNWPLTFGQGTKVEIK",binds
15,"GH2-31 scFv (scFv, V domains shown, source: E. coli ER2738, secreted, in filtered culture supernatant) VH: EVQLVESGGGLVQPGGSLRLSCAASGFTINNFGIHWVRQAPGKGLEWVASIGPFWGYTSYADSVKGRFTISADTSKNTAYLQMNSLRAEDTAVYYCARFGNDYDGVMDYWGQGTLVTVSS VL: DIQMTQSPSSLSASVGDRVTITCRASQDVSWGVAWYQQKPGKAPKLLIYSPPWLYSGVPSRFSGSGSGTDFTLTISSLQPEDFATYYCQQYYNWPITFGQGTKVEIK",binds
16,"GH2-107 scFv (scFv, V domains shown, source: E. coli ER2738, secreted, in filtered culture supernatant) VH: EVQLVESGGGLVQPGGSLRLSCAASGFTISNFGIHWVRQAPGKGLEWVAYIGPYGGYTSYADSVKGRFTISADTSKNTAYLQMNSLRAEDAAVYYCARFHIHNLWGMDYWGQGTLVTVSS VL: DIQMTQSPSSLSASVGDRVTITCRASQDVSDGVAWYQQKPGKAPKLLISGAGYLYSGVPSRFSGSGSGTDFTLTISSLQPEDFATYYCQQFYSWPITFGQGTKVEIK",binds
17,"GH2-4 scFv (scFv, V domains shown, source: E. coli ER2738, secreted, in filtered culture supernatant) VH: EVQLVESGGGLVQPGGSLRLSCAASGFTINSGSIHWVRQAPGKGLEWVAFIGPFGGYTSYADSVKGRFTISADTSKNTAYLQMNSLRAEDTAVYYCARFGWNDYDFMDYWGQGTLVTVSS VL: DIQMTQSPSSLSASVGDRVTITCRASQDVFGGVAWYQQKPGKAPKLLIYSASFLYSGVPSRFSGSGSGTDFTLTISSLQPEDFATYYCQQYFDWPITFGQGTKVEIK",binds
18,"GH2-12 scFv (scFv, V domains shown, source: E. coli ER2738, secreted, in filtered culture supernatant) VH: EVQLVESGGGLVQPGGSLRLSCAASGFTINDWGIHWVRQAPGKGLEWVAGIWPYWGYTSYADSVKGRFTISADTSKNTAYLQMNSLRAEDTAVYYCARYHVYFWWMDYWGQGTLVTVSS VL: DIQMTQSPSSLSASVGDRVTITCRASQDVSNNVAWYQQKPGKAPKLLIYGPSFLYSGVPSRFSGSGSGTDFTLTISSLQPEDFATYYCQQYYNYPITFGQGTKVEIK",binds
19,"GH2-8 scFv (scFv, V domains shown, source: E. coli ER2738, secreted, in filtered culture supernatant) VH: GVQLVESGGGLVQPGGSLRLSCAASGFTIGSSGIHWVRQAPGKGLEWVAGIWPYWGSTYYADSVKGRFTISADTSKNTAYLQMNSLRAEDTAVYYCARFGVGYHYYMDYWGQGTLVTVSS VL: DIQMTQSPSSLSASVGDRVTITCRASQDVGWWVAWYQQKPGKAPKLLISGATGLYSGVPSRFSGSGSGTDFTLTISSLQPEDFATYYCQQSWDSPITFGQGTKVEIK",binds
20,"GH2-55 scFv (scFv, V domains shown, source: E. coli ER2738, secreted, in filtered culture supernatant) VH: EVQLVESGGGLVQPGGSLRLSCAASGFTIDGFSIHWVRQAPGKGLEWVAGIGPYGGYTSYADSVKGRFTISADTSKNTAYLQMNSLRAEDTAVYYCARFDIWHNFGMDYWGQGTLVTVSS VL: DIQMTQSPSSLSASVGDRVTITCRASQDVDGNVAWYQQKPGKAPKLLISSAGSLYSGVPSRFSGSGSGTDFTLTISSLQPEDFATYYCQQSWSWPLTFGQGTKVEIK",binds
